Where a chain is given by its changes, count along the chain named.
T1: human EpCAM expressed on cells (CHO cells stably transfected with human EpCAM); EpCAM-positive human tumor … (human, UniProt P16422 24-314)
T1 sequence (looked up): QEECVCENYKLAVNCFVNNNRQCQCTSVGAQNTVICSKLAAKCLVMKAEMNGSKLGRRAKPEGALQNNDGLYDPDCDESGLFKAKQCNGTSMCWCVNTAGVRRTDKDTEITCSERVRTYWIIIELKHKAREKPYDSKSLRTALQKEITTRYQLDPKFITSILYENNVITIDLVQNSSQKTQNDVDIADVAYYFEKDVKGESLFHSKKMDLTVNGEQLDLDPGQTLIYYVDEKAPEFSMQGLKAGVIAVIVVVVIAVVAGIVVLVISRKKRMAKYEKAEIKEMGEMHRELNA

B1: AC1695 protease-untreated anti-EpCAM×anti-CD3 ProTIA (bispecific antibody)
chain: DIQMTQSPSSLSASVGDRVTITCRSTKSLLHSNGITYLYWYQQKPGKAPKLLIYQMSNLASGVPSRFSSSGSGTDFTLTISSLQPEDFATYYCAQNLEIPRTFGQGTKVEIKGATPPETGAETESPGETTGGSAESEPPGEGQVQLVQSGPGLVQPGGSVRISCAASGYTFTNYGMNWVKQAPGKGLEWMGWINTYTGESTYADSFKGRFTFSLDTSASAAYLQINSLRAEDTAVYYCARFAIKGDYWGQGTLLTVSSGGGGSDIQMTQSPSSLSASVGDRVTITCRASQDIRNYLNWYQQKPGKAPKLLIYYTSRLESGVPSRFSGSGSGTDYTLTISSLQPEDFATYYCQQGNTLPWTFGQGTKVEIKGATPPETGAETESPGETTGGSAESEPPGEGEVQLVESGGGLVQPGGSLRLSCAASGYSFTGYTMNWVRQAPGKGLEWVALINPYKGVSTYNQKFKDRFTISVDKSKNTAYLQMNSLRAEDTAVYYCARSGYYGDSDWYFDVWGQGTLVTVSSGTAEAASASGTTGRAGEAANLTPAGLTGPPGSPAGSPTSTEEGTSESATPESGPGTSTEPSEGSAPGSPAGSPTSTEEGTSTEPSEGSAPGTSTEPSEGSAPGTSESATPESGPGSEPATSGSETPGSEPATSGSETPGSPAGSPTSTEEGTSESATPESGPGTSTEPSEGSAPGTSTEPSEGSAPGSPAGSPTSTEEGTSTEPSEGSAPGTSTEPSEGSAPGTSESATPESGPGTSTEPSEGSAPGTSESATPESGPGSEPATSGSETPGTSTEPSEGSAPGTSTEPSEGSAPGTSESATPESGPGTSESATPESGPGSPAGSPTSTEEGTSESATPESGPGSEPATSGSETPGTSESATPESGPGTSTEPSEGSAPGTSTEPSEGSAPGTSTEPSEGSAPGTSTEPSEGSAPGTSTEPSEGSAPGTSTEPSEGSAPGSPAGSPTSTEEGTSTEPSEGSAPGTSESATPESGPGSEPATSGSETPGTSESATPESGPGSEPATSGSETPGTSESATPESGPGTSTEPSEGSAPGTSESATPESGPGSPAGSPTSTEEGSPAGSPTSTEEGSPAGSPTSTEEGTSESATPESGPGTSTEPSEGSAPGTSESATPESGPGSEPATSGSETPGTSESATPESGPGSEPATSGSETPGTSESATPESGPGTSTEPSEGSAPGSPAGSPTSTEEGTSESATPESGPGSEPATSGSETPGTSESATPESGPGSPAGSPTSTEEGSPAGSPTSTEEGTSTEPSEGSAPGTSESATPESGPGTSESATPESGPGTSESATPESGPGSEPATSGSETPGSEPATSGSETPGSPAGSPTSTEEGTSTEPSEGSAPGTSTEPSEGSAPGSEPATSGSETPGTSESATPESGPGTSTEPSEGSAPGHHHHHH
B2: AC1684 protease-untreated anti-EpCAM×anti-CD3 ProTIA (bispecific antibody)
chain: DIQMTQSPSSLSASVGDRVTITCRSTKSLLHSNGITYLYWYQQKPGKAPKLLIYQMSNLASGVPSRFSSSGSGTDFTLTISSLQPEDFATYYCAQNLEIPRTFGQGTKVEIKGATPPETGAETESPGETTGGSAESEPPGEGQVQLVQSGPGLVQPGGSVRISCAASGYTFTNYGMNWVKQAPGKGLEWMGWINTYTGESTYADSFKGRFTFSLDTSASAAYLQINSLRAEDTAVYYCARFAIKGDYWGQGTLLTVSSGGGGSDIQMTQSPSSLSASVGDRVTITCRASQDIRNYLNWYQQKPGKAPKLLIYYTSRLESGVPSRFSGSGSGTDYTLTISSLQPEDFATYYCQQGNTLPWTFGQGTKVEIKGATPPETGAETESPGETTGGSAESEPPGEGEVQLVESGGGLVQPGGSLRLSCAASGYSFTGYTMNWVRQAPGKGLEWVALINPYKGVSTYNQKFKDRFTISVDKSKNTAYLQMNSLRAEDTAVYYCARSGYYGDSDWYFDVWGQGTLVTVSSGTAEAASASGESGRAANTEPPELGAGPGSPAGSPTSTEEGTSESATPESGPGTSTEPSEGSAPGSPAGSPTSTEEGTSTEPSEGSAPGTSTEPSEGSAPGTSESATPESGPGSEPATSGSETPGSEPATSGSETPGSPAGSPTSTEEGTSESATPESGPGTSTEPSEGSAPGTSTEPSEGSAPGSPAGSPTSTEEGTSTEPSEGSAPGTSTEPSEGSAPGTSESATPESGPGTSTEPSEGSAPGTSESATPESGPGSEPATSGSETPGTSTEPSEGSAPGTSTEPSEGSAPGTSESATPESGPGTSESATPESGPGSPAGSPTSTEEGTSESATPESGPGSEPATSGSETPGTSESATPESGPGTSTEPSEGSAPGTSTEPSEGSAPGTSTEPSEGSAPGTSTEPSEGSAPGTSTEPSEGSAPGTSTEPSEGSAPGSPAGSPTSTEEGTSTEPSEGSAPGTSESATPESGPGSEPATSGSETPGTSESATPESGPGSEPATSGSETPGTSESATPESGPGTSTEPSEGSAPGTSESATPESGPGSPAGSPTSTEEGSPAGSPTSTEEGSPAGSPTSTEEGTSESATPESGPGTSTEPSEGSAPGTSESATPESGPGSEPATSGSETPGTSESATPESGPGSEPATSGSETPGTSESATPESGPGTSTEPSEGSAPGSPAGSPTSTEEGTSESATPESGPGSEPATSGSETPGTSESATPESGPGSPAGSPTSTEEGSPAGSPTSTEEGTSTEPSEGSAPGTSESATPESGPGTSESATPESGPGTSESATPESGPGSEPATSGSETPGSEPATSGSETPGSPAGSPTSTEEGTSTEPSEGSAPGTSTEPSEGSAPGSEPATSGSETPGTSESATPESGPGTSTEPSEGSAPGHHHHHH
B3: AC1686 protease-untreated anti-EpCAM×anti-CD3 ProTIA (bispecific antibody)
chain: B2 chain with S534P, T540H, P543S, E544G, G546T, A547E
B4: AC1715 protease-untreated anti-EpCAM×anti-CD3 ProTIA (bispecific antibody)
chain: B2 chain with E541T, P543A, E544G, G546T, A547G, G548P
B5: AC1714 protease-untreated anti-EpCAM×anti-CD3 ProTIA (bispecific antibody)
chain: B2 chain with S534A, A537S, T540H, E541T, P543A, E544G, G546T, A547G, G548P
B6: AC1685 protease-untreated anti-EpCAM×anti-CD3 ProTIA (bispecific antibody)
chain: B2 chain with E541A, P543E, E544G, G546T, A547G, G548P

target: recombinant human CD3 epsilon & delta (rhCD3ε & δ), Creative BioMart cat #CD3E&CD3D-219H (human) (UniProt P07766); test: sandwich ELISA: rhCD3ε & δ coated, biotinylated anti-XTEN antibody detection
Sequence (P07766 23-126, stated change not applied, chain 1 of 2): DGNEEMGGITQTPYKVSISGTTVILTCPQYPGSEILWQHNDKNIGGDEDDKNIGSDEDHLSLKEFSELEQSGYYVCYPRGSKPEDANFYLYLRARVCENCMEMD
Sequence (P04234 22-105, stated change not applied, chain 2 of 2, further chain): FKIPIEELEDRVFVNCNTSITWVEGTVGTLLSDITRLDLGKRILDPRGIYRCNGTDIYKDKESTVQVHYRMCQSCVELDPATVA

Binder	EC50
B1	0.028 µg/mL
B2	0.031 µg/mL
B3	0.026 µg/mL
B4	0.034 µg/mL
B5	0.03 µg/mL
B6	0.029 µg/mL

target: T1, human EpCAM expressed on cells (CHO …); test: cell-based or functional assay

Binder	EC50 (pM), caspase 3/7 cytotoxicity, PBMC with HCT-116 cells 10:1	EC50 (pM), caspase 3/7 cytotoxicity, PBMC with HPAF-II cells 10:1	EC50 (pM), caspase 3/7 cytotoxicity, PBMC with MDA-MB-231 cells 10:1
B1	53 pM	18 pM	3750 pM
B2	32 pM	24 pM	12200 pM
B3	240 pM	118 pM	2680 pM
B4	20 pM	14 pM	1190 pM
B5	52 pM	20 pM	1740 pM
B6	27 pM	29 pM	4340 pM

Reference: patent publication US12060424 (AMUNIX PHARMACEUTICALS, dated 2024)
